# Reference: patent publication US20210246166A1 (Bayer, published 2021)
# Numbered stars: 1 amine (or outer) side, 2 acyl side, 3 side chain; on linkers, the order of the positions; unused ones are H or OH. Bridge positions count the residues as written; N and C are the ends. Square brackets hold non-standard residues; d marks the D form. Ends that are not written are not given here. * marks the point of attachment. X11 = (S)‑Piperidine‑3‑carboxylic acid, O=C([C@H]1CCCN([*:1])C1)[*:2]; Phe(3-COOH) = N[C@@H](Cc1cccc(C(=O)O)c1)C(=O)O; Benzoyl(3-COOH) = O=C(O)c1cccc(C(=O)*)c1; Benzoyl(4-COOH) = O=C(O)c1ccc(C(=O)*)cc1; Nip(3R) = O=C([C@@H]1CCCN([*:1])C1)[*:2]; Oic = O=C(O)[C@@H]1C[C@@H]2CCCC[C@@H]2N1; tBuAla = CC(C)(C)C[C@H](N)C(=O)O; PEG4 = NCCOCCOCCOCCOCCC(=O)O; Pen = CC(C)(S)[C@H](N)C(=O)O; PEG3 = NCCOCCOCCOCCC(=O)O; Orn = NCCC[C@H](N)C(=O)O; Sar = CNCC(=O)O
# T1: Recombinant human MASP1 enzyme (fragment corresponding to amino acids 297-699, C-terminal His Tag) (human, UniProt P48740 297-699)
# T1 sequence: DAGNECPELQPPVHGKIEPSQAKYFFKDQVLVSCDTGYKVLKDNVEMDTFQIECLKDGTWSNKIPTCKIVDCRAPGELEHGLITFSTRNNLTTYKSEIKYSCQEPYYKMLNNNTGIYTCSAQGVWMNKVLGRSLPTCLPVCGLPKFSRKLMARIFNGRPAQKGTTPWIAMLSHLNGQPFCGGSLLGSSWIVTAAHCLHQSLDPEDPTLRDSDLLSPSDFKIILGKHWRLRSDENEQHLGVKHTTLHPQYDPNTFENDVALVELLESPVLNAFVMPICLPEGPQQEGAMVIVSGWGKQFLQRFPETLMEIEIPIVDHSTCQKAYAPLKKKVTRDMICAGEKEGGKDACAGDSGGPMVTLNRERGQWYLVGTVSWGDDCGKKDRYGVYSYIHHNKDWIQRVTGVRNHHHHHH
# B1: ((N-Me)G)-IC+SRSLP-(Oic)-I-(Pen)+IPT-OH (peptide)
# peptide: [Sar]ICSRSLP[Oic]I[Pen]IPT-OH
# modifications: disulfide 3-11; N-terminus assumed
# SMILES: CC[C@H](C)[C@H](NC(=O)CNC)C(=O)N[C@H]1CSSC(C)(C)[C@@H](C(=O)N[C@H](C(=O)N2CCC[C@H]2C(=O)N[C@H](C(=O)O)[C@@H](C)O)[C@@H](C)CC)NC(=O)[C@H]([C@@H](C)CC)NC(=O)[C@@H]2C[C@@H]3CCCC[C@@H]3N2C(=O)[C@@H]2CCCN2C(=O)[C@H](CC(C)C)NC(=O)[C@H](CO)NC(=O)[C@H](CCCNC(=N)N)NC(=O)[C@H](CO)NC1=O
# B2: ((N-Me)G)-IC+SRS-((tBu)A)-PPI-(Pen)+IP-(PEG3(16atoms))-OH (peptide)
# peptide: [Sar]ICSRS[tBuAla]PPI[Pen]IP[PEG4]-OH
# modifications: disulfide 3-11; N-terminus assumed
# SMILES: CC[C@H](C)[C@H](NC(=O)CNC)C(=O)N[C@H]1CSSC(C)(C)[C@@H](C(=O)N[C@H](C(=O)N2CCC[C@H]2C(=O)NCCOCCOCCOCCOCCC(=O)O)[C@@H](C)CC)NC(=O)[C@H]([C@@H](C)CC)NC(=O)[C@@H]2CCCN2C(=O)[C@@H]2CCCN2C(=O)[C@H](CC(C)(C)C)NC(=O)[C@H](CO)NC(=O)[C@H](CCCNC(=N)N)NC(=O)[C@H](CO)NC1=O
# B3: ((N-Me)G)-IC+SRS-((tBu)A)-PPI-(Pen)+IP-((3-Carboxy)F)-OH (peptide)
# peptide: [Sar]ICSRS[tBuAla]PPI[Pen]IP[Phe(3-COOH)]-OH
# modifications: disulfide 3-11; N-terminus assumed
# SMILES: CC[C@H](C)[C@H](NC(=O)CNC)C(=O)N[C@H]1CSSC(C)(C)[C@@H](C(=O)N[C@H](C(=O)N2CCC[C@H]2C(=O)N[C@@H](Cc2cccc(C(=O)O)c2)C(=O)O)[C@@H](C)CC)NC(=O)[C@H]([C@@H](C)CC)NC(=O)[C@@H]2CCCN2C(=O)[C@@H]2CCCN2C(=O)[C@H](CC(C)(C)C)NC(=O)[C@H](CO)NC(=O)[C@H](CCCNC(=N)N)NC(=O)[C@H](CO)NC1=O
# B4: (3-Carboxybenzoic acid)-GIC+SRSLP-(Oic)-I-(Pen)+IPD-OH (peptide)
# peptide: {Benzoyl(3-COOH)}-GICSRSLP[Oic]I[Pen]IPD-OH
# modifications: disulfide 3-11
# SMILES: CC[C@H](C)[C@H](NC(=O)CNC(=O)c1cccc(C(=O)O)c1)C(=O)N[C@H]1CSSC(C)(C)[C@@H](C(=O)N[C@H](C(=O)N2CCC[C@H]2C(=O)N[C@@H](CC(=O)O)C(=O)O)[C@@H](C)CC)NC(=O)[C@H]([C@@H](C)CC)NC(=O)[C@@H]2C[C@@H]3CCCC[C@@H]3N2C(=O)[C@@H]2CCCN2C(=O)[C@H](CC(C)C)NC(=O)[C@H](CO)NC(=O)[C@H](CCCNC(=N)N)NC(=O)[C@H](CO)NC1=O
# B5: ((S)-Piperidine-3-Carboxylic Acid)-IC+SRSLP-(Oic)-I-(Pen)+IPD-OH (peptide)
# peptide: [X11]ICSRSLP[Oic]I[Pen]IPD-OH
# modifications: disulfide 3-11; N-terminus assumed
# SMILES: CC[C@H](C)[C@H](NC(=O)[C@H]1CCCNC1)C(=O)N[C@H]1CSSC(C)(C)[C@@H](C(=O)N[C@H](C(=O)N2CCC[C@H]2C(=O)N[C@@H](CC(=O)O)C(=O)O)[C@@H](C)CC)NC(=O)[C@H]([C@@H](C)CC)NC(=O)[C@@H]2C[C@@H]3CCCC[C@@H]3N2C(=O)[C@@H]2CCCN2C(=O)[C@H](CC(C)C)NC(=O)[C@H](CO)NC(=O)[C@H](CCCNC(=N)N)NC(=O)[C@H](CO)NC1=O
# B6: ((N-Me)G)-IC+SRSLP-(Oic)-I-(Pen)+IPD-(PEG2(13 atoms))-OH (peptide)
# peptide: [Sar]ICSRSLP[Oic]I[Pen]IPD[PEG3]-OH
# modifications: disulfide 3-11; N-terminus assumed
# SMILES: CC[C@H](C)[C@H](NC(=O)CNC)C(=O)N[C@H]1CSSC(C)(C)[C@@H](C(=O)N[C@H](C(=O)N2CCC[C@H]2C(=O)N[C@@H](CC(=O)O)C(=O)NCCOCCOCCOCCC(=O)O)[C@@H](C)CC)NC(=O)[C@H]([C@@H](C)CC)NC(=O)[C@@H]2C[C@@H]3CCCC[C@@H]3N2C(=O)[C@@H]2CCCN2C(=O)[C@H](CC(C)C)NC(=O)[C@H](CO)NC(=O)[C@H](CCCNC(=N)N)NC(=O)[C@H](CO)NC1=O
# B7: ((N-Me)G)-IC+SRSLP-(Oic)-I-(Pen)+IPY-OH (peptide)
# peptide: [Sar]ICSRSLP[Oic]I[Pen]IPY-OH
# modifications: disulfide 3-11; N-terminus assumed
# SMILES: CC[C@H](C)[C@H](NC(=O)CNC)C(=O)N[C@H]1CSSC(C)(C)[C@@H](C(=O)N[C@H](C(=O)N2CCC[C@H]2C(=O)N[C@@H](Cc2ccc(O)cc2)C(=O)O)[C@@H](C)CC)NC(=O)[C@H]([C@@H](C)CC)NC(=O)[C@@H]2C[C@@H]3CCCC[C@@H]3N2C(=O)[C@@H]2CCCN2C(=O)[C@H](CC(C)C)NC(=O)[C@H](CO)NC(=O)[C@H](CCCNC(=N)N)NC(=O)[C@H](CO)NC1=O
# B8: ((N-Me)G)-IC+SRSLP-(Oic)-I-(Pen)+IPDA-OH (peptide)
# peptide: [Sar]ICSRSLP[Oic]I[Pen]IPDA-OH
# modifications: disulfide 3-11; N-terminus assumed
# SMILES: CC[C@H](C)[C@H](NC(=O)CNC)C(=O)N[C@H]1CSSC(C)(C)[C@@H](C(=O)N[C@H](C(=O)N2CCC[C@H]2C(=O)N[C@@H](CC(=O)O)C(=O)N[C@@H](C)C(=O)O)[C@@H](C)CC)NC(=O)[C@H]([C@@H](C)CC)NC(=O)[C@@H]2C[C@@H]3CCCC[C@@H]3N2C(=O)[C@@H]2CCCN2C(=O)[C@H](CC(C)C)NC(=O)[C@H](CO)NC(=O)[C@H](CCCNC(=N)N)NC(=O)[C@H](CO)NC1=O
# B9: (4-Carboxybenzoic acid)-GIC+SRSLP-(Oic)-I-(Pen)+IPD-OH (peptide)
# peptide: {Benzoyl(4-COOH)}-GICSRSLP[Oic]I[Pen]IPD-OH
# modifications: disulfide 3-11
# SMILES: CC[C@H](C)[C@H](NC(=O)CNC(=O)c1ccc(C(=O)O)cc1)C(=O)N[C@H]1CSSC(C)(C)[C@@H](C(=O)N[C@H](C(=O)N2CCC[C@H]2C(=O)N[C@@H](CC(=O)O)C(=O)O)[C@@H](C)CC)NC(=O)[C@H]([C@@H](C)CC)NC(=O)[C@@H]2C[C@@H]3CCCC[C@@H]3N2C(=O)[C@@H]2CCCN2C(=O)[C@H](CC(C)C)NC(=O)[C@H](CO)NC(=O)[C@H](CCCNC(=N)N)NC(=O)[C@H](CO)NC1=O
# B10: ((N-Me)G)-IC+SRS-((tBu)A)-PPI-(Pen)+IP-(Orn)-D-OH (peptide)
# peptide: [Sar]ICSRS[tBuAla]PPI[Pen]IP[Orn]D-OH
# modifications: disulfide 3-11; N-terminus assumed
# SMILES: CC[C@H](C)[C@H](NC(=O)CNC)C(=O)N[C@H]1CSSC(C)(C)[C@@H](C(=O)N[C@H](C(=O)N2CCC[C@H]2C(=O)N[C@@H](CCCN)C(=O)N[C@@H](CC(=O)O)C(=O)O)[C@@H](C)CC)NC(=O)[C@H]([C@@H](C)CC)NC(=O)[C@@H]2CCCN2C(=O)[C@@H]2CCCN2C(=O)[C@H](CC(C)(C)C)NC(=O)[C@H](CO)NC(=O)[C@H](CCCNC(=N)N)NC(=O)[C@H](CO)NC1=O
# B11: ((R)-Piperidine-3-Carboxylic Acid)-IC+SRSLP-(Oic)-I-(Pen)+IPD-OH (peptide)
# peptide: [Nip(3R)]ICSRSLP[Oic]I[Pen]IPD-OH
# modifications: disulfide 3-11; N-terminus assumed
# SMILES: CC[C@H](C)[C@H](NC(=O)[C@@H]1CCCNC1)C(=O)N[C@H]1CSSC(C)(C)[C@@H](C(=O)N[C@H](C(=O)N2CCC[C@H]2C(=O)N[C@@H](CC(=O)O)C(=O)O)[C@@H](C)CC)NC(=O)[C@H]([C@@H](C)CC)NC(=O)[C@@H]2C[C@@H]3CCCC[C@@H]3N2C(=O)[C@@H]2CCCN2C(=O)[C@H](CC(C)C)NC(=O)[C@H](CO)NC(=O)[C@H](CCCNC(=N)N)NC(=O)[C@H](CO)NC1=O
# B12: ((N-Me)G)-IC+SRSLP-(Oic)-I-(Pen)+IP-((3-Carboxy)F)-OH (peptide)
# peptide: [Sar]ICSRSLP[Oic]I[Pen]IP[Phe(3-COOH)]-OH
# modifications: disulfide 3-11; N-terminus assumed
# SMILES: CC[C@H](C)[C@H](NC(=O)CNC)C(=O)N[C@H]1CSSC(C)(C)[C@@H](C(=O)N[C@H](C(=O)N2CCC[C@H]2C(=O)N[C@@H](Cc2cccc(C(=O)O)c2)C(=O)O)[C@@H](C)CC)NC(=O)[C@H]([C@@H](C)CC)NC(=O)[C@@H]2C[C@@H]3CCCC[C@@H]3N2C(=O)[C@@H]2CCCN2C(=O)[C@H](CC(C)C)NC(=O)[C@H](CO)NC(=O)[C@H](CCCNC(=N)N)NC(=O)[C@H](CO)NC1=O
# B13: ((N-Me)G)-IC+SRSLP-(Oic)-I-(Pen)+IPR-OH (peptide)
# peptide: [Sar]ICSRSLP[Oic]I[Pen]IPR-OH
# modifications: disulfide 3-11; N-terminus assumed
# SMILES: CC[C@H](C)[C@H](NC(=O)CNC)C(=O)N[C@H]1CSSC(C)(C)[C@@H](C(=O)N[C@H](C(=O)N2CCC[C@H]2C(=O)N[C@@H](CCCNC(=N)N)C(=O)O)[C@@H](C)CC)NC(=O)[C@H]([C@@H](C)CC)NC(=O)[C@@H]2C[C@@H]3CCCC[C@@H]3N2C(=O)[C@@H]2CCCN2C(=O)[C@H](CC(C)C)NC(=O)[C@H](CO)NC(=O)[C@H](CCCNC(=N)N)NC(=O)[C@H](CO)NC1=O
# Biological target: T1, Recombinant human MASP1 enzyme …
# Assay: cell-based or functional assay
row,Binder,human MASP1 IC50
1,B1,3 nM
2,B2,2.1 nM
3,B3,2.8 nM
4,B4,58 nM
5,B5,2.4 nM
6,B6,5.5 nM
7,B7,3.2 nM
8,B8,2.6 nM
9,B9,19.5 nM
10,B10,3.8 nM
11,B11,5.2 nM
12,B12,5.4 nM
13,B13,2.35 nM

# Biological target: Recombinant human MASP2 enzyme (fragment corresponding to amino acids 297-686, C-terminal His Tag) (human, UniProt O00187 297-686)
# Assay: cell-based or functional assay
# Sequence of Recombinant human MASP2 enzyme (fragment corresponding to amino acids 297-686, C-terminal His Tag) (O00187 other isoform, or with tags, fused parts or gaps limits assumed): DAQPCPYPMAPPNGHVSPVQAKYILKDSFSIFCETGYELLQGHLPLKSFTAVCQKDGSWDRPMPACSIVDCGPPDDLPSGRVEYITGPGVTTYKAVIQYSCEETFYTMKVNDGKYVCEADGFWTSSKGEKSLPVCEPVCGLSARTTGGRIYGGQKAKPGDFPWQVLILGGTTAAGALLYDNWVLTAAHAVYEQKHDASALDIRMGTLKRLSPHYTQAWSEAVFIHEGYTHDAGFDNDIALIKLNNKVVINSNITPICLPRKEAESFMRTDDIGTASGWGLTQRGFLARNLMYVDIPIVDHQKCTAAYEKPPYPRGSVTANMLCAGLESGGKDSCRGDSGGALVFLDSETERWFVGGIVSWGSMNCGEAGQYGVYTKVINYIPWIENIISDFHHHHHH
row,Binder,human MASP2 IC50
1,B1,180 nM
2,B2,35 nM
3,B3,25 nM
4,B4,43 nM
5,B5,32 nM
6,B6,120 nM
7,B7,120 nM
8,B8,84 nM
9,B9,21 nM
10,B10,32 nM
11,B11,110 nM
12,B12,64 nM
13,B13,48 nM
